# In patent US10314894B2, “Treatment of cardio-renal disease using PCSK6” (THE CLEVELAND CLINIC FOUNDATION, priority 2014, dated 2019):
# Legend:
# [1] = target: T1, corin variant T555I/Q568P (Homo sapiens, UniProt Q9Y5Q5, Q568P/T555I); test: PCSK6-mediated corin activation in HEK293 cells, corin variant T555I/Q568P; type: cell-based; conditions: corin T555I/Q568P mutant, Western, densitometry
# T1 construct: expressed in transfected cells; host or cells: HEK293
# T1 sequence (Q9Y5Q5 1-1042 T555I/Q568P): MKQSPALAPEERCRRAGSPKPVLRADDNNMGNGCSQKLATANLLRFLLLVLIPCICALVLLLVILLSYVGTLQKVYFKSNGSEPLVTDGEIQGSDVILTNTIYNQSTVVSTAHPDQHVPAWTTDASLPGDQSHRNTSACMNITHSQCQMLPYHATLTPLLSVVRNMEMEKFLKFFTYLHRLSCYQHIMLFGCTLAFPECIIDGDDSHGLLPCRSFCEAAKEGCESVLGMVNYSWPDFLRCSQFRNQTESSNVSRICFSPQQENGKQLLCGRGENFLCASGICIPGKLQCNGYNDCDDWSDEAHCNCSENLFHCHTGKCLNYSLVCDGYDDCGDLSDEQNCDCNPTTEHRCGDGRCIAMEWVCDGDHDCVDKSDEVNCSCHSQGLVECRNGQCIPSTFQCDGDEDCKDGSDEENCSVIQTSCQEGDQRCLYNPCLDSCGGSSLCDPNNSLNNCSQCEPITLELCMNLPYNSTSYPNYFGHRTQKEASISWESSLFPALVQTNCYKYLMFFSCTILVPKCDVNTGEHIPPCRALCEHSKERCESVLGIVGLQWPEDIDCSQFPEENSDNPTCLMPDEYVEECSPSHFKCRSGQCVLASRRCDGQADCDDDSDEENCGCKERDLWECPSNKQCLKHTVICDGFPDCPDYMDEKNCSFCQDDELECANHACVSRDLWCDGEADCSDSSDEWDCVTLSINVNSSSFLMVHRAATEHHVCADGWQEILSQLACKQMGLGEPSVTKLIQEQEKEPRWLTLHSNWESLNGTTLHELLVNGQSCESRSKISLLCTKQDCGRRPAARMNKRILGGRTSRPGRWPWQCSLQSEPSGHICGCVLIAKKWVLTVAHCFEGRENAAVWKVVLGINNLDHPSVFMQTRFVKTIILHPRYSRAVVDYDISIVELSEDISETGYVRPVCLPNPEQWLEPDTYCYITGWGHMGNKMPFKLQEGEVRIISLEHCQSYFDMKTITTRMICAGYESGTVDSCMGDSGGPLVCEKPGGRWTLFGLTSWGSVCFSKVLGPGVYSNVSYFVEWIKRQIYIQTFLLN
# Text: (§1) Plasmids expressing human corin WT and mutants R801A, S985A, T555I, Q568P, T555I/Q568P, K317E, S472G and R539C were reported previously. Dong, N. et al., J Biol Chem 289, 17909-17916 (2014); Knappe et al., J Biol Chem 278, 52363-52370 (2003); Wu et al., J Biol Chem 277, 16900-16905. (2002). Plasmids expressing human PCSK1-9 were made by cloning respective cDNAs into pcNDA3.1 vector. Recombinant corin and PCSK proteins encoded by these plasmids contained a C-terminal V5 or flag tag for protein detection in Western blotting.
# (§2) HEK293 and HL-1 cells were transfected with corin or PCSK6 expression plasmids. After 48-72 h, cells were lysed in a buffer containing 25 mM Tris-HCl, pH 7.4, 150 mM NaCl, 1 mM EDTA, 1% (v/v) NP-40, and 1% (v/v) protease inhibitor cocktail. Recombinant corin and PCSK6 proteins were immunoprecipitated with an anti-V5 or anti-flag antibody. Western blotting was carried out to analyze corin expression and activation or PCSK6 expression with or without reducing agents. Percentage of corin activation (corin-p vs. corin fragments) was quantified by densitometric analysis of Western blots.
# [2] = target: T2, corin variant T555I (Homo sapiens, UniProt Q9Y5Q5, T555I); test: PCSK6-mediated corin activation in HEK293 cells, corin variant T555I; type: cell-based; conditions: Western
# T2 construct: expressed in transfected cells; host or cells: HEK293
# T2 sequence (Q9Y5Q5 1-1042 T555I): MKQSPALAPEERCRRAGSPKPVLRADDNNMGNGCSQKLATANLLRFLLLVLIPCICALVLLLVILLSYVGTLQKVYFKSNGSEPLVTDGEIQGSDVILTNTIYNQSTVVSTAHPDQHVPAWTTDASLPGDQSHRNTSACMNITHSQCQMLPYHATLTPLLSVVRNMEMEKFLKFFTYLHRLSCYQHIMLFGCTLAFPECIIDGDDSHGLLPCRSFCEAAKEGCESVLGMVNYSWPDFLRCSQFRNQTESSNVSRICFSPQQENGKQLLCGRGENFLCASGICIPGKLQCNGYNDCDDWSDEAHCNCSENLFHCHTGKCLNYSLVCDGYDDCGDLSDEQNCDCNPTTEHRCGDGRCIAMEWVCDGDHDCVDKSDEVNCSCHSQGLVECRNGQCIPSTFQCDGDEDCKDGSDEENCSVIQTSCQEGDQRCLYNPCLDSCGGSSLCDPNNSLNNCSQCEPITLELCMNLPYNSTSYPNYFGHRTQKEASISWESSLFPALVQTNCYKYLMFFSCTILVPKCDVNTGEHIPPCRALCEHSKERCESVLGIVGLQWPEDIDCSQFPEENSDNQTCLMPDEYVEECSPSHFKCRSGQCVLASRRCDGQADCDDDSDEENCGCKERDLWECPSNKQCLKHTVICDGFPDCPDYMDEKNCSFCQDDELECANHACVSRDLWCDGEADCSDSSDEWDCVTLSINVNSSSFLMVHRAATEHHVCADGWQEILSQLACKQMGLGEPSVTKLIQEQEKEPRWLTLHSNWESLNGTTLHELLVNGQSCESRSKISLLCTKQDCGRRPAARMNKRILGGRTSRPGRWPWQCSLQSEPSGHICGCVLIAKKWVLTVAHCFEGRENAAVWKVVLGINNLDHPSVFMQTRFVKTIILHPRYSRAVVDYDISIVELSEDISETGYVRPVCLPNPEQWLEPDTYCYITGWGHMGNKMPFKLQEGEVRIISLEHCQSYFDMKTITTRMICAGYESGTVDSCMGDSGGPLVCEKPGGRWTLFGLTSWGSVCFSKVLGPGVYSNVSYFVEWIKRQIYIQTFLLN
# Text: as §1, §2
molecule,measurement,setting,value
"proprotein convertase subtilisin/kexin-6 (protein, listed as Homo sapiens, C-terminal FLAG tag) MPPRAPPAPGPRPPPRAAAATDTAAGAGGAGGAGGAGGPGFRPLAPRPWRWLLLLALPAACSAPPPRPVYTNHWAVQVLGGPAEADRVAAAHGYLNLGQIGNLEDYYHFYHSKTFKRSTLSSRGPHTFLRMDPQVKWLQQQEVKRRVKRQVRSDPQALYFNDPIWSNMWYLHCGDKNSRCRSEMNVQAAWKRGYTGKNVVVTILDDGIERNHPDLAPNYDSYASYDVNGNDYDPSPRYDASNENKHGTRCAGEVAASANNSYCIVGIAYNAKIGGIRMLDGDVTDVVEAKSLGIRPNYIDIYSASWGPDDDGKTVDGPGRLAKQAFEYGIKKGRQGLGSIFVWASGNGGREGDYCSCDGYTNSIYTISVSSATENGYKPWYLEECASTLATTYSSGAFYERKIVTTDLRQRCTDGHTGTSVSAPMVAGIIALALEANSQLTWRDVQHLLVKTSRPAHLKASDWKVNGAGHKVSHFYGFGLVDAEALVVEAKKWTAVPSQHMCVAASDKRPRSIPLVQVLRTTALTSACAEHSDQRVVYLEHVVVRTSISHPRRGDLQIYLVSPSGTKSQLLAKRLLDLSNEGFTNWEFMTVHCWGEKAEGQWTLEIQDLPSQVRNPEKQGKLKEWSLILYGTAEHPYHTFSAHQSRSRMLELSAPELEPPKAALSPSQVEVPEDEEDYTAQSTPGSANILQTSVCHPECGDKGCDGPNADQCLNCVHFSLGSVKTSRKCVSVCPLGYFGDTAARRCRRCHKGCETCSSRAATQCLSCRRGFYHHQEMNTCVTLCPAGFYADESQKNCLKCHPSCKKCVDEPEKCTVCKEGFSLARGSCIPDCEPGTYFDSELIRCGECHHTCGTCVGPGREECIHCAKNFHFHDWKCVPACGEGFYPEEMPGLPHKVCRRCDENCLSCAGSSRNCSRCKTGFTQLGTSCITNHTCSNADETFCEMVKSNRLCERKLFIQFCCRTCLLAG","PCSK6-mediated corin activation, reduction vs. WT (in words)",[1],markedly reduced
same,PCSK6-mediated activation cleavage,[2],detected
